This test has as its target T1, 人hCD2(His标签)蛋白 (human, UniProt P06729 25-209).
T1 construct: not shown: His tag
T1 sequence: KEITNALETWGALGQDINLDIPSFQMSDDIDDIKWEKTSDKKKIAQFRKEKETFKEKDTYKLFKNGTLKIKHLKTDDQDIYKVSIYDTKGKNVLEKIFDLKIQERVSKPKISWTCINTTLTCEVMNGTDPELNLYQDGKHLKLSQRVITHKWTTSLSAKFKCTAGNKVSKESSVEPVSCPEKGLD
As to the kind of experiment: ELISA, plate coated with hCD2-His at 2 μg/mL. On the technique in general: ELISA stands for enzyme-linked immunosorbent assay.

B1: 单克隆抗体8G1 (antibody, V domains shown)
VH: EVLLVESGGGLVKPGGSLKLSCAASGFTFSSYAMSWVRQTPEKRLEWVATITNGGSYNYYPDSVKGRFTISRDNAKNTLYLQMSSLRSEDTAIYYCARSNPYYFDYWGQGTTLTVSP
VL: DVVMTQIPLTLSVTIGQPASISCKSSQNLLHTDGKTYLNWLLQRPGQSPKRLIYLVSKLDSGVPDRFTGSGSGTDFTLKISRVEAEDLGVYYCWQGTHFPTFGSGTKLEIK
Take B1: the binding result was “no binding (tested: 0.1μg/mL 8G1)”.

The values above are taken from CN115073591A (INST MILITARY MEDICINE ACADEMY MILITARY SCIENCES PLA, dated 2022).
